Source: article PMC6238593, “Beetle luciferases with naturally red- and blue-shifted emission” (Life Science Alliance, 2018)
Residue numbers refer to the chain shown, from its start.

What was measured:
[1] = target: red-emitting luciferase from the glow-worm Phrixothrix hirtus, wild type (Phrixothrix hirtus); test: crystal structure; REPh free enzyme, P3(1)21 crystal form, 3.60 Å; PEG 3350 19-21%, bis-tris propane 100 mM pH 6.0, ammonium sulfate 200 mM
[2] = target: red-emitting luciferase from the glow-worm Phrixothrix hirtus, wild type (Phrixothrix hirtus); test: crystal structure; REPh free enzyme, P1 crystal form, 3.05 Å; only the N-terminal domains seen; PEG 3350 19-21%, bis-tris propane 100 mM pH 6.0, ammonium sulfate 200 mM
[3] = target: red-emitting luciferase from the glow-worm Phrixothrix hirtus, wild type (Phrixothrix hirtus); test: SEC; Superdex 200 5/150 GL; MWs estimated with a gel filtration calibration kit
[4] = target: red-emitting luciferase from Phrixothrix hirtus, mutant Y153A (Phrixothrix hirtus); test: as above
[5] = target: T1, GBAv (blue-shifted green-emitting luciferase from A. vivianii) (Amydetes, UniProt A0A3F2YLV6); test: bioluminescence emission spectra; type: biochemical; settings: pH 7.0 to 8.0
T1 construct: full-length synthetic codon-optimised gene in pET28a+, E. coli BL21-CodonPlus-RIL, Ni and size-exclusion purified; monomer; PDB codes 6AAA, 6ABH, 6AC3 printed without assignment to protein
T1 sequence (A0A3F2YLV6 1-547): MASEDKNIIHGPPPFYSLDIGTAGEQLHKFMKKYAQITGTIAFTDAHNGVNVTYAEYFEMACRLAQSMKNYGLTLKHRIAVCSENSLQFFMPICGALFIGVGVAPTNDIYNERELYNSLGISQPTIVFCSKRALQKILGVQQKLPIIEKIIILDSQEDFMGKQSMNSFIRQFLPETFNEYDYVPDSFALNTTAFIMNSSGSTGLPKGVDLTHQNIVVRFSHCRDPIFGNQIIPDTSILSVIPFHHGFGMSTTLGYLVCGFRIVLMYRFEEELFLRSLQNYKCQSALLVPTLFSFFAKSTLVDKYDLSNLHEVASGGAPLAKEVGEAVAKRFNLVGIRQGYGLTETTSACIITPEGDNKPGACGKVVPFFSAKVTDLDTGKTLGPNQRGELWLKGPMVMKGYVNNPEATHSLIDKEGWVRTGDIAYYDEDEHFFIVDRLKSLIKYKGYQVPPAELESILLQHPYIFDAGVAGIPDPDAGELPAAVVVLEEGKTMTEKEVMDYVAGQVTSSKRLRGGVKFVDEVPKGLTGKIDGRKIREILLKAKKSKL

[6] = target: T2, REPh (red-emitting luciferase from P. hirtus) (Phrixothrix hirtus, UniProt Q9U4U7); test: differential scanning calorimetry; type: binding; settings: 35 °C without ligand, Hepes 20 mM pH 7.8, MgCl2 10 mM, ligand 5 uM (methods) or 5 mM (Figure S10 legend)
T2 construct: full-length synthetic codon-optimised gene in pET28-MHL, E. coli BL21-CodonPlus-RIL, Ni and size-exclusion purified; about 61 kDa monomer, tetramer in solution; PDB codes 6AAA, 6ABH, 6AC3 printed without assignment to protein
T2 sequence (Q9U4U7 1-546): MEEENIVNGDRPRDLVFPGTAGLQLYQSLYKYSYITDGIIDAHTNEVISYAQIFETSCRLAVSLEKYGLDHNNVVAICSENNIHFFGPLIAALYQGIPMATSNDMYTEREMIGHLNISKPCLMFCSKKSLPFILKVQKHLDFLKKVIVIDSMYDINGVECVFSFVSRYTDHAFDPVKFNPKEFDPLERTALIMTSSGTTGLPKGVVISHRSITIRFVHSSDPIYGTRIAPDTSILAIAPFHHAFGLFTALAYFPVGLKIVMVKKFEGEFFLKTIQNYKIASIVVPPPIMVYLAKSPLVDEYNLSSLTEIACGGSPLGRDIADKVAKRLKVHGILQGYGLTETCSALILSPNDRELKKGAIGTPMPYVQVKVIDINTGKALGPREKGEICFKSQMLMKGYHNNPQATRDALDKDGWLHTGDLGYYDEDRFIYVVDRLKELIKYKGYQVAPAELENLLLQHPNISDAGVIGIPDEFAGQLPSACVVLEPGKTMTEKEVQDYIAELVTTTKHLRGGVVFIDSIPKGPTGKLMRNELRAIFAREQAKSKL

[7] = target: T3, REPh (red-emitting luciferase from P. hirtus) (Phrixothrix hirtus, UniProt Q9U4U7, K522A); test: differential scanning calorimetry; type: binding; settings: Hepes 20 mM pH 7.8, MgCl2 10 mM; ligand 5 uM (methods) or 5 mM (Figure S10 legend)
T3 construct: full-length synthetic codon-optimised gene in pET28-MHL, E. coli BL21-CodonPlus-RIL, Ni and size-exclusion purified; about 61 kDa monomer, tetramer in solution; PDB codes 6AAA, 6ABH, 6AC3 printed without assignment to protein
T3 sequence (Q9U4U7 1-546 K522A): T2 sequence (Q9U4U7 1-546) with K522A

[8] = target: red-emitting luciferase from Phrixothrix hirtus, mutant F162A (Phrixothrix hirtus); test: SEC; Superdex 200 5/150 GL; MWs estimated with a gel filtration calibration kit
[9] = target: red-emitting luciferase from Phrixothrix hirtus, double mutant Y153A/F162A (Phrixothrix hirtus); test: as above

“red-emitting luciferase from the glow-worm Phrixothrix hirtus, wild type (enzyme)” gave a stoichiometry N [1] of 4, a stoichiometry N [2] of 8 and a stoichiometry N [3] of 4.

With “red-emitting luciferase from Phrixothrix hirtus, mutant Y153A (enzyme)” the stoichiometry N [4] was 2.

For `O=C(O)[C@H]1CSC(c2nc3ccc(O)cc3s2)=N1` [firefly luciferin], the bioluminescence emission spectra ([5]; co-substrate ATP) was “The emission of WT GBAv was pH-dependent” and the Tm ([6]; Tm with ligand) was 41 °C.

With `Nc1ncnc2c1ncn2[C@@H]1O[C@H](COP(=O)(O)OP(=O)(O)OP(=O)(O)O)[C@@H](O)[C@H]1O` [ATP] the Tm [7] was “signal was detectable only after the addition of substrate, luciferin or ATP”, the bioluminescence emission spectra ([5]; co-substrate luciferin) was “The emission of WT GBAv was pH-dependent” and the Tm ([6]; two transitions with ligand, in °C (unit assumed)) was 36 and 41.

“red-emitting luciferase from Phrixothrix hirtus, mutant F162A (enzyme)” was tested, and the stoichiometry N [8] was 2.

“red-emitting luciferase from Phrixothrix hirtus, double mutant Y153A/F162A (enzyme)” gave a stoichiometry N [9] of 2.
